{"source": "IntAct's records for PubMed 32296183", "parents": {"B1": {"name": "Dolichol kinase (Homo sapiens), Q9UPQ8 (parent)", "chain": "MTRECPSPAPGPGAPLSGSVLAEAAVVFAVVLSIHATVWDRYSWCAVALAVQAFYVQYKWDRLLQQGSAVFQFRMSANSGLLPASMVMPLLGLVMKERCQTAGNPFFERFGIVVAATGMAVALFSSVLALGITRPVPTNTCVILGLAGGVIIYIMKHSLSVGEVIEVLEVLLIFVYLNMILLYLLPRCFTPGEALLVLGGISFVLNQLIKRSLTLVESQGDPVDFFLLVVVVGMVLMGIFFSTLFVFMDSGTWASSIFFHLMTCVLSLGVVLPWLHRLIRRNPLLWLLQFLFQTDTRIYLLAYWSLLATLACLVVLYQNAKRSSSESKKHQAPTIARKYFHLIVVATYIPGIIFDRPLLYVAATVCLAVFIFLEYVRYFRIKPLGHTLRSFLSLFLDERDSGPLILTHIYLLLGMSLPIWLIPRPCTQKGSLGGARALVPYAGVLAVGVGDTVASIFGSTMGEIRWPGTKKTFEGTMTSIFAQIISVALILIFDSGVDLNYSYAWILGSISTVSLLEAYTTQIDNLLLPLYLLILLMA"}}}
{"variants_of": "B1", "details": "with kca10_human KCNA10, Q16322"}
{"variant": "MTRECPSPAPGPGAPLSGSVLAEAAVVFAVVLSIHATVWDRYSWCAVALAVQAFYVQYKWDRLLQQGSAVFQFRMSANSGLLPASMVMPLLGLVMKERCQTAGNPFFERFGIVVAATGMAVALFSSVLALGITRPVPTNTCVILGLAGGVIIYIMKHSLSVGEVIEVLEVLLIFVYLNMILLYLLPRCFTPGEALLVLGGISFVLNQLIKRSLTLVESQGDPVDFFLLVVVVGMVLMGIFFSTLFVFMDSGTWASSIFFHLMTCVLSLGVVLPWLHRLIRRNPLLWLLQFLFQTDTRIYLLAYWSLLATLACLVVLYQNAKRSSSESKKHQAPTIARKYFHLIVVATYIPGIIFDRPLLYVAATVCLAVFIFLEYVRYFRIKPLGHTLRSFLSLFLDERDSGPLILTHIYLLLGMSLPIWLIPRPCTQKGSLGGARALVPSAGVLAVGVGDTVASIFGSTMGEIRWPGTKKTFEGTMTSIFAQIISVALILIFDSGVDLNYSYAWILGSISTVSLLEAYTTQIDNLLLPLYLLILLMA", "note": "[Y441S]", "effect of a mutation on the interaction": "with no effect"}
{"variants_of": "B1", "details": "with kcna1_human KCNA1, Q09470"}
{"variant": "MTRECPSPAPGPGAPLSGSVLAEAAVVFAVVLSIHATVWDRYSWCAVALAVQAFYVQYKWDRLLQQGSAVFQFRMSANSGLLPASMVMPLLGLVMKERCQTAGNPFFERFGIVVAATGMAVALFSSVLALGITRPVPTNTCVILGLAGGVIIYIMKHSLSVGEVIEVLEVLLIFVYLNMILLYLLPRCFTPGEALLVLGGISFVLNQLIKRSLTLVESQGDPVDFFLLVVVVGMVLMGIFFSTLFVFMDSGTWASSIFFHLMTCVLSLGVVLPWLHRLIRRNPLLWLLQFLFQTDTRIYLLAYWSLLATLACLVVLYQNAKRSSSESKKHQAPTIARKYFHLIVVATYIPGIIFDRPLLYVAATVCLAVFIFLEYVRYFRIKPLGHTLRSFLSLFLDERDSGPLILTHIYLLLGMSLPIWLIPRPCTQKGSLGGARALVPSAGVLAVGVGDTVASIFGSTMGEIRWPGTKKTFEGTMTSIFAQIISVALILIFDSGVDLNYSYAWILGSISTVSLLEAYTTQIDNLLLPLYLLILLMA", "note": "[Y441S]", "effect of a mutation on the interaction": "with no effect"}
{"variants_of": "B1", "details": "with synpr_human SYNPR"}
{"variant": "MTRECPSPAPGPGAPLSGSVLAEAAVVFAVVLSIHATVWDRYSWCAVALAVQAFYVQYKWDRLLQQGSAVFQFRMSANSGLLPASMVMPLLGLVMKERCQTAGNPFFERFGIVVAATGMAVALFSSVLALGITRPVPTNTCVILGLAGGVIIYIMKHSLSVGEVIEVLEVLLIFVYLNMILLYLLPRCFTPGEALLVLGGISFVLNQLIKRSLTLVESQGDPVDFFLLVVVVGMVLMGIFFSTLFVFMDSGTWASSIFFHLMTCVLSLGVVLPWLHRLIRRNPLLWLLQFLFQTDTRIYLLAYWSLLATLACLVVLYQNAKRSSSESKKHQAPTIARKYFHLIVVATYIPGIIFDRPLLYVAATVCLAVFIFLEYVRYFRIKPLGHTLRSFLSLFLDERDSGPLILTHIYLLLGMSLPIWLIPRPCTQKGSLGGARALVPSAGVLAVGVGDTVASIFGSTMGEIRWPGTKKTFEGTMTSIFAQIISVALILIFDSGVDLNYSYAWILGSISTVSLLEAYTTQIDNLLLPLYLLILLMA", "note": "[Y441S]", "effect of a mutation on the interaction": "disrupting interaction strength"}
{"variants_of": "B1", "details": "with tm45b_human TMEM45B"}
{"variant": "MTRECPSPAPGPGAPLSGSVLAEAAVVFAVVLSIHATVWDRYSWCAVALAVQAFYVQYKWDRLLQQGSAVFQFRMSANSGLLPASMVMPLLGLVMKERCQTAGNPFFERFGIVVAATGMAVALFSSVLALGITRPVPTNTCVILGLAGGVIIYIMKHSLSVGEVIEVLEVLLIFVYLNMILLYLLPRCFTPGEALLVLGGISFVLNQLIKRSLTLVESQGDPVDFFLLVVVVGMVLMGIFFSTLFVFMDSGTWASSIFFHLMTCVLSLGVVLPWLHRLIRRNPLLWLLQFLFQTDTRIYLLAYWSLLATLACLVVLYQNAKRSSSESKKHQAPTIARKYFHLIVVATYIPGIIFDRPLLYVAATVCLAVFIFLEYVRYFRIKPLGHTLRSFLSLFLDERDSGPLILTHIYLLLGMSLPIWLIPRPCTQKGSLGGARALVPSAGVLAVGVGDTVASIFGSTMGEIRWPGTKKTFEGTMTSIFAQIISVALILIFDSGVDLNYSYAWILGSISTVSLLEAYTTQIDNLLLPLYLLILLMA", "note": "[Y441S]", "effect of a mutation on the interaction": "disrupting interaction strength"}
{"variants_of": "B1", "details": "with cd79a_human CD79A"}
{"variant": "MTRECPSPAPGPGAPLSGSVLAEAAVVFAVVLSIHATVWDRYSWCAVALAVQAFYVQYKWDRLLQQGSAVFQFRMSANSGLLPASMVMPLLGLVMKERCQTAGNPFFERFGIVVAATGMAVALFSSVLALGITRPVPTNTCVILGLAGGVIIYIMKHSLSVGEVIEVLEVLLIFVYLNMILLYLLPRCFTPGEALLVLGGISFVLNQLIKRSLTLVESQGDPVDFFLLVVVVGMVLMGIFFSTLFVFMDSGTWASSIFFHLMTCVLSLGVVLPWLHRLIRRNPLLWLLQFLFQTDTRIYLLAYWSLLATLACLVVLYQNAKRSSSESKKHQAPTIARKYFHLIVVATYIPGIIFDRPLLYVAATVCLAVFIFLEYVRYFRIKPLGHTLRSFLSLFLDERDSGPLILTHIYLLLGMSLPIWLIPRPCTQKGSLGGARALVPSAGVLAVGVGDTVASIFGSTMGEIRWPGTKKTFEGTMTSIFAQIISVALILIFDSGVDLNYSYAWILGSISTVSLLEAYTTQIDNLLLPLYLLILLMA", "note": "[Y441S]", "effect of a mutation on the interaction": "with no effect"}
{"variants_of": "B1", "details": "with cxa8_human GJA8, P48165"}
{"variant": "MTRECPSPAPGPGAPLSGSVLAEAAVVFAVVLSIHATVWDRYSWCAVALAVQAFYVQYKWDRLLQQGSAVFQFRMSANSGLLPASMVMPLLGLVMKERCQTAGNPFFERFGIVVAATGMAVALFSSVLALGITRPVPTNTCVILGLAGGVIIYIMKHSLSVGEVIEVLEVLLIFVYLNMILLYLLPRCFTPGEALLVLGGISFVLNQLIKRSLTLVESQGDPVDFFLLVVVVGMVLMGIFFSTLFVFMDSGTWASSIFFHLMTCVLSLGVVLPWLHRLIRRNPLLWLLQFLFQTDTRIYLLAYWSLLATLACLVVLYQNAKRSSSESKKHQAPTIARKYFHLIVVATYIPGIIFDRPLLYVAATVCLAVFIFLEYVRYFRIKPLGHTLRSFLSLFLDERDSGPLILTHIYLLLGMSLPIWLIPRPCTQKGSLGGARALVPSAGVLAVGVGDTVASIFGSTMGEIRWPGTKKTFEGTMTSIFAQIISVALILIFDSGVDLNYSYAWILGSISTVSLLEAYTTQIDNLLLPLYLLILLMA", "note": "[Y441S]", "effect of a mutation on the interaction": "with no effect"}
